# B1: CTK: cathepsin K, lysosomal cysteine protease, the major osteoclast bone resorbing enzyme (protein, UniProt P43235 115-329, looked up)
# Cathepsin K: APDSVDYRKKGYVTPVKNQGQCGSCWAFSSVGALEGQLKKKTGKLLNLSPQNLVDCVSENDGCGGGYMTNAFQYVQKNRGIDSEDAYPYVGQEESCMYNPTGKAAKCRGYREIPEGNEKALKRAVARVGPVSVAIDASLTSFQFYSKGVYYDESCNSDNLNHAVLAVGYGIQKGNKHWIIKNSWGENWGNKGYILMARNKNNACGIANLASFPKM
# B2: RANKL: Receptor Activator of NK-kappaB Ligand, soluble murine, osteoclast differentiating factor (protein, UniProt O35235 70-316, looked up)
# extracellular domain: YFRAQMDPNRISEDSTHCFYRILRLHENADLQDSTLESEDTLPDSCRRMKQAFQGAVQKELQHIVGPQRFSGAPAMMEGSWLDVAQRGKPEAQPFAHLTINAASIPSGSHKVTLSSWYHDRGWAKISNMTLSNGKLRVNQDGFYYLYANICFRHHETSGSVPTDYLQLMVYVVKTSIKIPSSHNLMKGGSTKNWSGNSEFHFYSINVGGFFKLRAGEEISIQVSNPSLLDPDQDATYFGAFKVQDID
# modifications: extracellular domain
# B3: G-CSF: granulocyte colony-stimulating factor (Filgrastin, Roche) (protein, UniProt P09919 31-207, looked up)
# Granulocyte …: TPLGPASSLPQSFLLKCLEQVRKIQGDGAALQEKLVSECATYKLCHPEELVLLGHSLGIPWAPLSSCPSQALQLAGCLSQLHSGLFLYQGLLQALEGISPELGPTLDTLQLDVADFATTIWQQMEELGMAPALQPTQGAMPAFASAFQRRAGGVLVASHLQSFLEVSYRVLRHLAQP
# modifications: filgrastim
# Legend:
# SDF-1 [1] = assay: Migration of Pre B ALL G2 cells towards CTK treated SDF-1; format: cell-based; conditions: SDF-1 125 ng, CTK 1 mcg/ml, about 16 hours, 37° C.
# Procedure: We employed an in-vitro functional assay for SDF-1 (Example 10) to check the effect of CTK on SDF-1 activity. The assay consisted on migration of leukemic Pre B ALL G2 (cells which migrate very well to relative low concentrations of SDF-1, Spiegel, Blood, 2004) to SDF-1.
# In brief, SDF-1 (125 ng) was incubated with CTK ([…]) in a 100 ul reaction volume adjusted with PBS, for about 16 hours in 37° C. In some samples, protease inhibitor (PI, 1 ul, Sigma, containing the cystein protease inhibitor E-64) was preincubated with CTK for 1.5 hrs, in 37° C., before SDF-1 was added. The leukemic Pre B ALL G2 cells were loaded on transwells and migration towards CTK treated as well as non treated SDF-1 was measured.
# 125 ng/ml SDF-1α was kept untreated or incubated with CTK (1 mcg/ml) for overnight in 37° C. To inhibit enzymatic activity of CTK, 1 and 2 mcl of protease inhibitor (Sigma) was incubated with CTK for 1.5 h before adding to SDF-1. RPMI (600 μl) supplemented with 10% FCS was added with tested SDF-1 to the lower chamber of a Costar 24-wells transwell (Corning (pore size 5 μm), NY). 1×10^5 pre B ALL G2 cells in 100 μl medium were loaded to the upper chamber and were allowed to migrate for 4 hours at 37° C. Migrating cells were collected from the lower chamber and counted for 60 seconds using a FACSCalibur. Control spontaneous migration was performed without SDF-1α in the lower chamber.
# SDF-1 [2] = assay: SDF-1 cleavage by CTK, SDS-PAGE and blot with anti SDF-1 polyclonal Ab or K15C; format: biochemical; conditions: SDF-1 20 ng, CTK 1.76 ug/ml
# Procedure: SDF-1 (20 ng) was incubated with CTK (1.76 ug/ml) for 0, 15, 30, and 60 minutes at 37OC. Samples were subjected than to SDS-PAGE, blotted and detected with anti SDF-1 polyclonal Ab or with the monoclonal Ab K15C, which specifically binds the amino terminal part of the chemokine.
# We further explored the kinetics of SDF-1 cleavage by CTK at a time scale of minutes (FIG. 14). Samples of SDF-1 (20 ng) were incubated with CTK (1.76 ug/ml) for 0, 15, 30, 60, 120 and 240 minutes at 37° C. After collection, the samples were subjected to SDS-PAGE and blotted and detected with anti SDF-1 polyclonal Ab (R&D) or with the monoclonal Ab K15C which specifically binds the amino terminal part of the chemokine.
# progenitors = assay: Progenitor mobilization by RANKL, semisolid cultures; format: in vivo, Balb/c mice; conditions: RANKL 2 daily subcutaneous injections of 5 mcg for 3 days
# Procedure: (A) Progenitor mobilization assayed in semisolid cultures, induced by SDF-1 (10 mcg), HGF (1.5 mcg) injected for 5 days and sRANKL (2×5 mcg) injected for the first 3 days. (B) RANKL induced mobilization is inhibited by administration of anti CXCR4 antibodies (10 mcg) and MMP2/9 inhibitor (100 mcg), injected for the last 2 days. (C) Osteoclast precursors in the BM of treated mice were assayed by culturing BM cells for 4 days with M-CSF and sRANKL, followed by TRAP staining to detect mature active osteoclasts.
# (§1) Mice were administrated with RANKL as follows: 2 daily subcutaneous injections of 5 mcg for 3 days and after two more days in the absence of RANKL. The following parameters were monitored in both treated and control untreated mice: TRAP+ activated osteoclasts (FIG. 11A), induction of osteoclast proteases MMP-9 (FIG. 11B) and CTK (FIG. 11C) in the BM and mobilization (FIG. 12).
# MMP-9 = MMP-9 in BM after RANKL, zymography; format: in vivo, Balb/c mice; conditions: RANKL 2 daily subcutaneous injections of 5 mcg for 3 days
# Procedure: (§2) Balb/c mice were injected with soluble murine RANKL (2 injections per day, 5 mcg per subcutaneous injection). Bones of treated mice were stained for TRAP (in red) indicating mature activated osteoclasts (A). Levels of MMP-9 in BM fluids were determined by zymography assay (B). The expression of CTK mRNA was detected by RT-PCR (C).
# as §1
# TRAP+ active osteoclasts = assay: In vivo osteoclast activation by RANKL, TRAP staining; design: species or system Balb/c mice; conditions: RANKL 2 daily subcutaneous injections of 5 mcg for 3 days
# Procedure: as §2, §1
# CTK = CTK expression in BM after RANKL, RT-PCR; format: in vivo, Balb/c mice; conditions: RANKL 2 daily subcutaneous injections of 5 mcg for 3 days
# Procedure: as §2, §1
# [3] = test system: TRAP+ multinucleated osteoclasts; assay: Osteoblast/BM co-culture, TRAP+ multinucleated osteoclast count; format: cell-based, mouse; conditions: G-CSF 50 ng/ml, HGF 50 ng/ml, SDF-1 10 and 100 ng/ml; 5 days
# Procedure: Osteoclast precursors are stimulated by cell-cell contact with osteoblasts to become activated multinucleated TRAP+ bone resorbing cells. To obtain active osteoclasts in vitro, a clvarian osteoblasts are incubated with Vitamine D3 and PG2E which potentiate their M-CSF production and RANKL expression, needed for osteoclast activation. BM cells which contain osteoclast precursors are seeded then on the osteoblast monolayer, for 5 days, to obtain active multinucleated osteoclasts.
# A co-culture of primary mouse osteoblasts and BM (containing ocl precursors as detailed above) was seeded in the presence of G-CSF (50 ng/ml), HGF (50 ng/ml), or SDF-1 (10 and 100 ng/ml). Five days later, TRAP+ multinucleated osteoclasts in the cultures were stained (as described in Example 1) and counted 5 days later.
# SDF-1 [4] = assay: SDF-1 transcription (RT-PCR) and secretion (ELISA) in primary calvaria osteoblasts; format: cell-based, mouse; conditions: 50 ng/ml, 3 days
# Procedure: Osteoblast were incubated with G-CSF, HGF or remained untreated, and SDF-1 transcription and expression was determined in such cells (FIG. 9).
# Primary calvaria osteoblasts were cultured for 3 days in the presence of SDF-1 (PeproTech, 100 […]), HGF (PeproTech, 50 ng/ml) and G-CSF (Filgrastin, Roche, 50 ng/ml). Conditioned media was collected to determine SDF-1 concentration by ELISA, as described in Example 2. Determination of SDF-1 transcription and expression as in Example 2.
molecule,measurement,setting,value
B1,chemotactic activity of SDF-1 after incubation with CTK,SDF-1 [1],abolished
same,kinetics of SDF-1 cleavage by CTK,"SDF-1 [2]; 0-240 minutes, 37° C.",fast and site specific SDF-1 cleavage
same,site of SDF-1 cleavage by CTK,SDF-1 [2]; detection with K15C (amino terminal part),N-terminally cleaved
B2,mobilization of progenitors,progenitors,mobilization of progenitors
same,MMP-9 expression in the bone marrow,MMP-9,induction
same,formation of TRAP+ active osteoclasts,TRAP+ active osteoclasts,induced formation of TRAP+ active osteoclasts along the endosteum
same,CTK expression in the bone marrow,CTK,induction
B3,level of activated TRAP+ osteoclasts,[3],significantly increased
same,SDF-1 transcription in osteoblasts,SDF-1 [4],induce
same,SDF-1 production in osteoblasts,SDF-1 [4]; conditioned media ELISA,induce
